Experimental data: patent publication US20220041683A1 (published 2022)
Where no end group is shown, it is not given here.

B1: synthetic peptide TPP11 not fused to Fc (peptide)
peptide: HTPGNSKPTRTPRR
modifications: also: biotinylated for ELISA, position not given here
B2: Fc-A22p (Fc fusion, not shown: a dimerising Fc or GST; small tags and cut ends)
chain: HTPGNSNKWKHLQENKKGRPRR
modifications: not fully specified (N-terminus); also: fused C-terminal to Fc (hinge-CH2-CH3), isotype and sequence not given here, linker not given here
B3: Fc-TPP1 (Fc fusion)
chain: GGGGSGGGGSGGGGSHTPGNSNQFVLTSTRPPR
modifications: not fully specified (N-terminus); also: Fc fusion, peptide at end of CH3, Fc not in chain, disulfide-linked Fc dimer
notes: Disulfide-linked dimer, peptide fused to the end of CH3 by a (G4S)3 linker; expressed in HEK293-F; also called Fc-TPP1 fusion protein; Fc-TPP1 protein; not shown: Antibody heavy-chain constant region Fc (hinge-CH2-CH3)
B4: Fc-TPP8 (Fc fusion, not shown: a dimerising Fc or GST; small tags and cut ends)
chain: GGGGSGGGGSGGGGSHTPGIATRTPR
modifications: not fully specified (N-terminus); also: Fc fusion, Fc not in chain, disulfide-linked Fc dimer

Columns and labels:
[1] = molecular target: NRP1-b1b2 (273-586) protein (UniProt O14786); test: ELISA on immobilised NRP1-b1b2, reference Fc-TPP11
[2] = molecular target: NRP2-b1b2 (275-595) protein (UniProt O60462); test: SPR; KD on NRP2-b1b2 divided by KD on NRP1-b1b2
[3] = molecular target: NRP2-b1b2 (275-595) protein (UniProt O60462); test: SPR (Biacore 2000), NRP2-b1b2 immobilised on CM5
[4] = molecular target: T1, NRP1 displayed on the human umbilical vein endothelial cell (HUVEC) surface (human, UniProt O14786 22-923); test: confocal microscopy on HUVEC
T1 construct: whole, on cells; Endogenous NRP1 of human cells; also called NRP1 on the HUVEC cell surface
Experimental: Specifically, 5×10⁴ HUVEC cells were added to each well of a 24-well plate and incubated in 0.5 ml of EGM2 (Endothelial growth medium, Promocell) medium for 24 hours under the conditions of 5% CO₂ and 37° C. […] Next, the medium was removed, and each well was washed with cold PBS. […] The nucleus was stained (blue fluorescence) with DAPI and analyzed by confocal microscopy.

[5] = molecular target: NRP1-b1b2 (273-586) protein (UniProt O14786); test: SPR (Biacore 2000), NRP1-b1b2 immobilised on CM5

NRP2-b1b2 (275-595) protein, sequence (O60462 275-595 limits assumed, form in doubt): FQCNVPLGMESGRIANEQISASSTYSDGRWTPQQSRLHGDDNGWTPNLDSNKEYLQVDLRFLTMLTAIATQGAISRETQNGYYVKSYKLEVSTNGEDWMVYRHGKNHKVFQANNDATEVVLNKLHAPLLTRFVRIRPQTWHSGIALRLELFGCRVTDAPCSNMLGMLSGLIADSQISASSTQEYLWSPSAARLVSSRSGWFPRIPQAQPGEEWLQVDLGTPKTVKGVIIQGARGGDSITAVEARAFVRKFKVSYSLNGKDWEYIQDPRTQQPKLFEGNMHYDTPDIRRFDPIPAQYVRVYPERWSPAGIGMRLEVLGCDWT

fold lower affinity than Fc-TPP11 [1] [fold]	Binding Affinity Ratio [(KD for NRP2)/KD for NRP1)] [2]	Kd [3] [nM]	binding result [4]	Kd [5] [nM]	Binder
100	–	–	–	–	B1
–	0.98	62	–	–	B2
–	625	1130	binds	1.81	B3
–	65.8	254	–	3.85	B4
